Experimental data taken from PMC11849304 (Virology Journal, 2025).

Molecular target: soluble WT SARS-CoV-2 spike trimer protein (SARS-CoV-2, wild-type (NC_045512), UniProt P0DTC2)
Test: ELISA

Binder	binding result
COV2-2490 (antibody, V domains shown) VH: EVQLVESGGGLVQPGGSLRLSCAASGFTFSSYWMNWVRQAPGKGLEWVANINQDGGEKYYVDSVRGRFTISRDNAKNSLYLQMNSLRAEDTAVYYCARDPYDLYGDYGGTFDYWGQGTLVTVSS VL: not shown	binds
8D2 (antibody, V domains shown) VH: EVQLVESGGGLVQPGGSLRLSCAASGFTFSSYWMSWVRQAPGKGLEWVANINQDGSEKYYVDSVKGRFTISRDNAKNSLYLQVNSLRAEDTAVYYCARDWDYDILTGSWFGAFDIWGQGTTVTVSS VL: DIQMTQSPSSLSASVGDRVTITCRASQGIRNDLGWYQQKPGKAPKRLIYAASSLQSGVPSRFSGSGSGTEFTLTISSLQPEDFATYYCLQHNSYPLTFGGGTKVEIK	binds
